Data on one substance can be found in US20210206880A1.

This assay concerns the target human β2 adrenergic receptor, wild type (human) (UniProt P07550). Kind of assay: cell-based or functional assay.

As to MbNb80^cHopQ (designed binder), the apparent potency shift for epinephrine: IC50 for β2AR-wt alone divided by IC50^high in the presence of MbNb80^cHopQ ([3H]-DHA competition) (fold (IC50 ratio)) was 2000 and the apparent potency shift for isoprotenerol: IC50 for β2AR-wt divided by IC50^high in the presence of MbNb80^cHopQ ([3H]-DHA competition) (fold (IC50 ratio)) was found to be 2000.
